Assays:
Experiment in all cases: pull-down
[1] = target: T1, Flag-tagged Pds5b-WT, treated with Nek2a and Cdk1/2-cyclin A2 in vitro (human, UniProt Q9NTI5 1-1447)
T1 sequence: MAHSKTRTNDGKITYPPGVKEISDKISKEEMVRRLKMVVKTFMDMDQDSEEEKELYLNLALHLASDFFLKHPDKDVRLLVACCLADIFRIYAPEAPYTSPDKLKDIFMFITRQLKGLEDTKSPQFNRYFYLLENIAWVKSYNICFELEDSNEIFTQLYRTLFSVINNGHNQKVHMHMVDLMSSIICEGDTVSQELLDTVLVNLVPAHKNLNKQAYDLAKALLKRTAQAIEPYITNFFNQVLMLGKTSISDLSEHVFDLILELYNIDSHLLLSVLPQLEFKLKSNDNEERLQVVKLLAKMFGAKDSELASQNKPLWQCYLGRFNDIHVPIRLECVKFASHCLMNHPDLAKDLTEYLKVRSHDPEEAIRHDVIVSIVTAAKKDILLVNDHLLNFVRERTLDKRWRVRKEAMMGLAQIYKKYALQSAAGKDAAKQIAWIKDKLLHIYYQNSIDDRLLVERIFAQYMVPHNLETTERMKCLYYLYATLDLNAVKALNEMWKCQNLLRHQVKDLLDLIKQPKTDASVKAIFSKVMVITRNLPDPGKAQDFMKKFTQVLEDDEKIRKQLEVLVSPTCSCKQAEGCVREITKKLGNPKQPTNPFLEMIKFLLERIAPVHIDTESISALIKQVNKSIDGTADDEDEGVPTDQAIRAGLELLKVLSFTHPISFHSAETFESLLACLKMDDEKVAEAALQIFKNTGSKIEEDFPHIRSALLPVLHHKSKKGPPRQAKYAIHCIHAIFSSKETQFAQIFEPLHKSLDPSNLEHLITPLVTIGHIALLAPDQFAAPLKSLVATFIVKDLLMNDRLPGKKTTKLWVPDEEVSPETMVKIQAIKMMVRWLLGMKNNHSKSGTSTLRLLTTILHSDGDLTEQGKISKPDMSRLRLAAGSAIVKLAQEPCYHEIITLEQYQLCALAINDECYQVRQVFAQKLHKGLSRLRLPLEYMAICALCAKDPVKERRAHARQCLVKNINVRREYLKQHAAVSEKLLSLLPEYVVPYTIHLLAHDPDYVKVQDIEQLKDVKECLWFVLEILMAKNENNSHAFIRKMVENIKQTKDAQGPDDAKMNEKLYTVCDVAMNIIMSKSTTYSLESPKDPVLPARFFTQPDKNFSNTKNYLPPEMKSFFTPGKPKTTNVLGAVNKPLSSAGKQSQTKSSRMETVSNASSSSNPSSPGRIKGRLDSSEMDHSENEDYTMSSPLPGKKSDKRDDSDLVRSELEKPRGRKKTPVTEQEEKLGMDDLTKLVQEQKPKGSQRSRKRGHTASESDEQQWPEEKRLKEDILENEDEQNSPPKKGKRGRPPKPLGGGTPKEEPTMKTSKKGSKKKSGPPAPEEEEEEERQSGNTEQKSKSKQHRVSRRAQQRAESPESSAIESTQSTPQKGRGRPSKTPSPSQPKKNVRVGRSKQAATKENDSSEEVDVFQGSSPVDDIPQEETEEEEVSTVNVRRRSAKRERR

[2] = target: T2, Flag-tagged Pds5b-Ser1161,1166Ala (2A), phosphorylated by Nek2a in vitro (human, UniProt Q9NTI5 1-1447, Ser1161,1166Ala | Ser1161,1166Ala)
T2 sequence: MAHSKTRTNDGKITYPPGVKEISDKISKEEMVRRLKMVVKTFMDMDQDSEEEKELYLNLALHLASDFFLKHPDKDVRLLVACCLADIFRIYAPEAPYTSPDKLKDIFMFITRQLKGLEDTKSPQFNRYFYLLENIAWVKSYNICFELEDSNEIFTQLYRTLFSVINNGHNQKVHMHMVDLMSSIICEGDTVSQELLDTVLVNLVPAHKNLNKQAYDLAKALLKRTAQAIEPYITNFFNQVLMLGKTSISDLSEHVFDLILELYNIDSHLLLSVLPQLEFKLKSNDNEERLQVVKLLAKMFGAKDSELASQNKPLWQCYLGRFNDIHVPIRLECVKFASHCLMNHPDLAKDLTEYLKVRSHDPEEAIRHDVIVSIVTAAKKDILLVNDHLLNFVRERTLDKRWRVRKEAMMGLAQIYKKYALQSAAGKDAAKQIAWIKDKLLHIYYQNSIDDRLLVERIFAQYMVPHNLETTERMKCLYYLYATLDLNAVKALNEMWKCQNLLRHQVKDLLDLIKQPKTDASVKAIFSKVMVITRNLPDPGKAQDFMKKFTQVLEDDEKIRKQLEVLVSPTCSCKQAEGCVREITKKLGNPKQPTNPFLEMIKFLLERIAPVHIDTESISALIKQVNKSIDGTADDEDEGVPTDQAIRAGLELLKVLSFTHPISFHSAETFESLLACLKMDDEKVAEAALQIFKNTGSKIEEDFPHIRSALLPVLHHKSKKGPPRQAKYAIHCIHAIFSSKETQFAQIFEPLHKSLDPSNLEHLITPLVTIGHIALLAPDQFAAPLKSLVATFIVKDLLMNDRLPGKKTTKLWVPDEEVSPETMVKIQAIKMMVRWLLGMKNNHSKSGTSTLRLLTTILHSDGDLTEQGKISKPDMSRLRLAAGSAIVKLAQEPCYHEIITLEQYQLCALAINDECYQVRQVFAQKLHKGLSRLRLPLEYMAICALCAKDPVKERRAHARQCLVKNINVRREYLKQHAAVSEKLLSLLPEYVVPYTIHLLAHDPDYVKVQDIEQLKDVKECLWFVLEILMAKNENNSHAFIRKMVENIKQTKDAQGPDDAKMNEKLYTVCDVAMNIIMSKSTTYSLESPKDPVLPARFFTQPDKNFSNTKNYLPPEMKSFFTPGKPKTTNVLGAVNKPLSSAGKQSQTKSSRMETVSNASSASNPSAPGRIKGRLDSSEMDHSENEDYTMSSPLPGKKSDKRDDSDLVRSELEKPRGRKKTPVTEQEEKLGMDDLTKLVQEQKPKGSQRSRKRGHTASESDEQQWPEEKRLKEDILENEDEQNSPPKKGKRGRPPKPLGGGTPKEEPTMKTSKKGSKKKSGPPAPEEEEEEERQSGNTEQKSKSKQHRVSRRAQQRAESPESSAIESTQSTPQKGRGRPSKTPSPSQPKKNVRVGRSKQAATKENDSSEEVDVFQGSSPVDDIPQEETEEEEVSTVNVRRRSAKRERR

[3] = target: T3, Flag-tagged Pds5b, co-expressed with Nek2aΔMR and Δ86-cyclin A2 (human, UniProt Q9NTI5 1-1447)
T3 sequence: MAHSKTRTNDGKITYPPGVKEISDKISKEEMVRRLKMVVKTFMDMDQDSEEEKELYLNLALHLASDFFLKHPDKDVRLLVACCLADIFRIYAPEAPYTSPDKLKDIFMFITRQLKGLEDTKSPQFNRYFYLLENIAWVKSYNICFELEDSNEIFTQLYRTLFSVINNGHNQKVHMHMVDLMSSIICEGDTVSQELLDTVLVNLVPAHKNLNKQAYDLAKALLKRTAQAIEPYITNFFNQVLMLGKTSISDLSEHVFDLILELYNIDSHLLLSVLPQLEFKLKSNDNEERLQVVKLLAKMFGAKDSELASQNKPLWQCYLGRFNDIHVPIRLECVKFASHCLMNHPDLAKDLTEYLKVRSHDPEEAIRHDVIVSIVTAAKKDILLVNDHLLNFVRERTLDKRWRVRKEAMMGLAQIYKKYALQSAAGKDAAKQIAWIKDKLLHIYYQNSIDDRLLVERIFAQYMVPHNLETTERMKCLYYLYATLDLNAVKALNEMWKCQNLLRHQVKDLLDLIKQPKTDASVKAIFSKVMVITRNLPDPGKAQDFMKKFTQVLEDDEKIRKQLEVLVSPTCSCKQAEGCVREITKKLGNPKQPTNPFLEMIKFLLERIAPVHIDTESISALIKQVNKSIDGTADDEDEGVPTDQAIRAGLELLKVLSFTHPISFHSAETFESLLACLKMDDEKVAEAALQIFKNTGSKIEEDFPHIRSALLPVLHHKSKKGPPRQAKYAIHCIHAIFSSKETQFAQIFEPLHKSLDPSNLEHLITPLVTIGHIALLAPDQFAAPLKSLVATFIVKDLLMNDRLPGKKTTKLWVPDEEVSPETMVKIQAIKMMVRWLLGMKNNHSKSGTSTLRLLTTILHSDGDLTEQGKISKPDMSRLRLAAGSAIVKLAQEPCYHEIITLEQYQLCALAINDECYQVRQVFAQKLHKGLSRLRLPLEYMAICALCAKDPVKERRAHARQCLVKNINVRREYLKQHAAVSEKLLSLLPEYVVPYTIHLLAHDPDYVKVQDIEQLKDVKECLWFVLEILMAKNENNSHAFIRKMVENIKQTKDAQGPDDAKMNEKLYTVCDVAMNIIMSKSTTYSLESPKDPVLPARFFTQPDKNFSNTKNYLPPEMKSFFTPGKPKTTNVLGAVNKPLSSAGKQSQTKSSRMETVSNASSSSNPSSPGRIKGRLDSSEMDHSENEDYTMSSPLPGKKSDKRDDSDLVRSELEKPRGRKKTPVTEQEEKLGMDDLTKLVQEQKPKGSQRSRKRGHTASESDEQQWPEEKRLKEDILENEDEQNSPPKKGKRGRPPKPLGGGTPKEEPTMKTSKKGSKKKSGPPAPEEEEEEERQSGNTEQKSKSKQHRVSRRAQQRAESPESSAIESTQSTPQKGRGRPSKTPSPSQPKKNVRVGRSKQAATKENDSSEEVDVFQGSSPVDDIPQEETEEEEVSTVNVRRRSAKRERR

Measured: binding result

B1: recombinant human Wapl (natural protein)
chain: MTSRFGKTYSRKGGNGSSKFDEVFSNKRTTLSTKWGETTFMAKLGQKRPNFKPDIQEIPKKPKVEEESTGDPFGFDSDDESLPVSSKNLAQVKCSSYSESSEAAQLEEVTSVLEANSKISHVVVEDTVVSDKCFPLEDTLLGKEKSTNRIVEDDASISSCNKLITSDKVENFHEEHEKNSHHIHKNADDSTKKPNAETTVASEIKETNDTWNSQFGKRPESPSEISPIKGSVRTGLFEWDNDFEDIRSEDCILSLDSDPLLEMKDDDFKNRLENLNEAIEEDIVQSVLRPTNCRTYCRANKTKSSQGASNFDKLMDGTSQALAKANSESSKDGLNQAKKGGVSCGTSFRGTVGRTRDYTVLHPSCLSVCNVTIQDTMERSMDEFTASTPADLGEAGRLRKKADIATSKTTTRFRPSNTKSKKDVKLEFFGFEDHETGGDEGGSGSSNYKIKYFGFDDLSESEDDEDDDCQVERKTSKKRTKTAPSPSLQPPPESNDNSQDSQSGTNNAENLDFTEDLPGVPESVKKPINKQGDKSKENTRKIFSGPKRSPTKAVYNARHWNHPDSEELPGPPVVKPQSVTVRLSSKEPNQKDDGVFKAPAPPSKVIKTVTIPTQPYQDIVTALKCRREDKELYTVVQHVKHFNDVVEFGENQEFTDDIEYLLSGLKSTQPLNTRCLSVISLATKCAMPSFRMHLRAHGMVAMVFKTLDDSQHHQNLSLCTAALMYILSRDRLNMDLDRASLDLMIRLLELEQDASSAKLLNEKDMNKIKEKIRRLCETVHNKHLDLENITTGHLAMETLLSLTSKRAGDWFKEELRLLGGLDHIVDKVKECVDHLSRDEDEEKLVASLWGAERCLRVLESVTVHNPENQSYLIAYKDSQLIVSSAKALQHCEELIQQYNRAEDSICLADSKPLPHQNVTNHVGKAVEDCMRAIIGVLLNLTNDNEWGSTKTGEQDGLIGTALNCVLQVPKYLPQEQRFDIRVLGLGLLINLVEYSARNRHCLVNMETSCSFDSSICSGEGDDSLRIGGQVHAVQALVQLFLERERAAQLAESKTDELIKDAPTTQHDKSGEWQETSGEIQWVSTEKTDGTEEKHKKEEEDEELDLNKALQHAGKHMEDCIVASYTALLLGCLCQESPINVTTVREYLPEGDFSIMTEMLKKFLSFMNLTCAVGTTGQKSISRVIEYLEHC
binds: [1] | [2] | [3]
